From paper PMC3806850 come the findings set out here.

For experiment [1], the target named is C215Fab-SEE (not stated | not stated (staphylococcal)) (UniProt P12993). Nature of the experiment: SPR.
Experiment [2] concerns the target 5T4Fab(V18)-SEA (not stated | not stated (staphylococcal)) (UniProt P0A0L2). In words: SPR.

The Kd is the constant that tells how readily two partners part at equilibrium. Low readings indicate a tighter complex, high ones a looser complex. One may read the koff as the rate constant with which the complex falls apart. A low value points to a long-lived complex. As usually defined, the kon is the second-order rate constant of association. Low readings indicate slower complex formation, high ones faster complex formation.

Sequence of UniProt P0A0L2 (P0A0L2 whole entry, looked up): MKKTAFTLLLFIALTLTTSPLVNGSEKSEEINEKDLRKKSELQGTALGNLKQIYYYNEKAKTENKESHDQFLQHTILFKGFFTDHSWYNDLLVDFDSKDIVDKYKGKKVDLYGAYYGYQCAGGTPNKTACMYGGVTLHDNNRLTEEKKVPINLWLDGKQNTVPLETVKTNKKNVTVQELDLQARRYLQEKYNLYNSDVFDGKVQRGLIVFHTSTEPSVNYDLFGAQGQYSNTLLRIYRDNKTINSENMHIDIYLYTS

Consider “Recombinant soluble human MHC class II (HLA-DR1) in complex with HA peptide (from UniProt P01903) (peptide-MHC)”, for which, in experiment [1], the Kd worked out at 1.3 µM, the off-rate constant (koff) came to 0.0029 s⁻¹ and the kon stood at 2300 M⁻¹ s⁻¹. Moreover, in experiment [2], the Kd was determined as 0.4 µM, the koff came to 0.0011 s⁻¹ and the kon is 2800 M⁻¹ s⁻¹.
